First the molecules themselves.
B1: Hammerhead Ribozyme (parent)
chain: ACCGGAUGUGCUUUCCGGUCUGAUGAGUCCGUGAGGACGAAACAG
B2: Hairpin Ribozyme (parent)
chain: GUCCUCUUUCACGUGCGCGUGAAAGAGAGAAGUGAACCAGAGAAACACACGUUGUGGUAUAUUACCUGGUA

In the first data set the parent is B1. Briefly: self-cleavage, relative activity (ratio to wild type); higher = more cleavage; co-transcriptional.
As for G36C A41U, the self-cleavage is 0.294.
The same measure, in the same setting: under G4A G17A stands 0.337; under G27C A34G, 0.653.
On the same count and under the same terms, under C20G G36U stands 0.305; under C2A A23C, 0.297.
For G5U G25A, the self-cleavage was 0.351.
On the same count and under the same terms, the result for A23G A37C reads 0.3; that for G4A A44U, 0.435; that for A1C C2G, 0.524.
Still for that read-out and setting: the result for C16G G36A reads 0.414; that for G5U U21A, 0.45.
Turning to U9G C11G, the self-cleavage turned out to be 1.17.
On the same count and under the same terms, under G27U G31U stands 0.474; under G18C C38G, 0.387; under A23C A41G, 0.394.
In the case of A26U A41C, the self-cleavage amounted to 0.295.
On to G4U C43A, for which the self-cleavage came out at 0.272.
Still for that read-out and setting: under G35A A40U stands 0.317.
Still for that read-out and setting: the result for U7C G18U reads 0.61.
Same read-out and setting: under U21G A41C stands 0.404; under A1U, 0.853.
Turning to C29A C43G, the self-cleavage turned out to be 0.348.
The same measure, in the same setting: the result for C15U G39A reads 0.347.
The same measure, in the same setting: the result for U9G U21A reads 0.405.
Consider G8C G17C, for which the self-cleavage worked out at 0.397.
On the same count and under the same terms, under A23U G35C stands 0.356.
The same measure, in the same setting: under G4A G8U stands 0.696; under C11A A40U, 0.29.
In the case of C3U U28G, the self-cleavage stood at 0.505.
In the case of U28A A42U, the self-cleavage was 0.341.
On the same count and under the same terms, under A6C A34U stands 0.529; under U9A C29U, 0.829; under U24G G31U, 1.13.
Consider U24A G35U, for which the self-cleavage is 0.791.
Same read-out and setting: under G5U U12G stands 0.806.
The same measure, in the same setting: the result for U13C G33C reads 0.889; that for U13C G33U, 1.14; that for U19A U24C, 0.362.
In the case of G27C, the self-cleavage came out at 0.843.
For the variant G27A C29A, the self-cleavage was 0.42.
With A6C U19C, the self-cleavage is 0.397.
The same measure, in the same setting: the result for A34U G35C reads 0.631.
The same measure, in the same setting: under G25A stands 0.377; under G17U C43A, 0.356; under G17C C20A, 0.313.
Still for that read-out and setting: under U13C C29A stands 0.789; under U19C U21A, 0.416; under G5C G31U, 1.02.
G4C C29G: the self-cleavage is 0.347.
For the variant U12C G33U, the self-cleavage turned out to be 1.37.
G18C G45C: the self-cleavage worked out at 0.383.
The same measure, in the same setting: under A23U stands 0.425.
On to U12C C43G, for which the self-cleavage came to 0.305.
Still for that read-out and setting: the result for G22A G27A reads 0.342; that for G5C C20G, 0.265.
C30A: the self-cleavage was determined as 0.919.
G45A: the self-cleavage was found to be 0.842.
Take U13G C20U: the self-cleavage worked out at 0.435.
On the same count and under the same terms, the result for G5U C16G reads 0.883; that for U19A U21G, 0.314; that for C16U G22A, 0.386.
The same measure, in the same setting: under C38G A42C stands 0.226; under G25C G33A, 0.31.
Same read-out and setting: under A1C U19C stands 0.365.
As for A40U C43U, the self-cleavage was 0.336.
As for U19G U24C, the self-cleavage was found to be 0.255.
On the same count and under the same terms, under A23U G33U stands 0.551.
Still for that read-out and setting: the result for C11G G31C reads 0.83.
As to G4U G35U, the self-cleavage was found to be 0.388.
For the variant G10A G36U, the self-cleavage was 0.632.
For A23U A40G, the self-cleavage came to 0.237.
In the case of A34C G36U, the self-cleavage stood at 0.437.
Regarding U21G U28C, the self-cleavage was found to be 0.381.
As to C3G U13G, the self-cleavage was 0.628.
The same measure, in the same setting: the result for U24G U28G reads 0.885; that for C11U U12C, 1.28; that for G31A G33C, 0.767.
In the case of U12A G36C, the self-cleavage stood at 0.758.
On the same count and under the same terms, under C2G C15U stands 0.304; under U12G U14G, 0.961.
C29G A34C: the self-cleavage came out at 0.56.
For A1U A44U, the self-cleavage turned out to be 0.425.
Turning to A23G U24C, the self-cleavage came to 0.488.
On the same count and under the same terms, under G22C G27A stands 0.359.
Regarding C29U A37C, the self-cleavage was 0.93.
Still for that read-out and setting: under C20G G35A stands 0.287.
Still for that read-out and setting: the result for U14C C29G reads 0.497; that for C3U G5C, 0.351; that for U28C G39C, 0.371.
The same measure, in the same setting: under U12C U21A stands 0.471; under U14G C38G, 0.603; under U13C A37G, 1.26.
For the variant G35U C43A, the self-cleavage worked out at 0.378.
As to G10U U32G, the self-cleavage came out at 0.758.
Consider A1G G22A, for which the self-cleavage stood at 0.384.
Consider C16G A37C, for which the self-cleavage is 0.737.
Same read-out and setting: under U32C A37C stands 0.803; under C3G G33U, 0.591.
On to U13C C16A, for which the self-cleavage is 1.05.
Still for that read-out and setting: under A1U G22U stands 0.33; under U9G A40U, 0.304; under A41C C43G, 0.408.
On to U9A G35U, for which the self-cleavage came to 0.435.
Same read-out and setting: the result for C11A G27U reads 0.684; that for G10A G25C, 0.362.
On the same count and under the same terms, under A42C A44C stands 0.262; under G8U C15G, 0.637.
As for C16U A42C, the self-cleavage is 0.363.
The same measure, in the same setting: under A1C G10C stands 0.397; under U24C C30G, 0.613.
Still for that read-out and setting: the result for U21A C30G reads 0.448; that for U24G G33U, 1.02.
Same read-out and setting: the result for A26C G39A reads 0.366; that for U28G C43U, 0.3.
In the case of G25U A41G, the self-cleavage stood at 0.35.
Same read-out and setting: the result for C15A A23C reads 0.307; that for G33A C43A, 0.369; that for C30G G39U, 0.337.
Same read-out and setting: under C3G stands 0.537.
The same measure, in the same setting: the result for U12G G27A reads 0.914; that for C2A A41U, 0.346.
Take U13G G25C: the self-cleavage is 0.315.
On the same count and under the same terms, the result for A1G U13A reads 1.96.
Turning to U14A A41C, the self-cleavage came to 0.302.
In the case of U14C G18C, the self-cleavage amounted to 0.351.
In the case of C2U A23C, the self-cleavage turned out to be 0.558.
Same read-out and setting: the result for G5C U12C reads 0.703.
The same measure, in the same setting: the result for G5A U9C reads 1.37; that for C20A U32C, 0.541.
On the same count and under the same terms, the result for U14A G18A reads 0.327.
U32C C38U: the self-cleavage is 0.726.
As for G5C U19G, the self-cleavage turned out to be 0.281.
On the same count and under the same terms, under C11A A42C stands 0.284; under A6C G8A, 0.783.
Still for that read-out and setting: under A23G U28A stands 0.329; under G8C A34C, 0.83.
Same read-out and setting: the result for G18C C20A reads 0.285; that for U7G G10C, 1.74; that for G10U C43A, 0.354.
As to C3U A40C, the self-cleavage turned out to be 0.469.
Still for that read-out and setting: under G8A C30G stands 1.04; under U19G G31C, 0.431; under C16G A42G, 0.346.
The same measure, in the same setting: the result for G17U A40C reads 0.449.

Another data set covers variants of B2. The data set is described as above.
For G1A U52G, the self-cleavage was determined as 0.0884.
The same measure, in the same setting: under G1C A28G stands 0.167; under G1C A44C, 0.125; under G1A A28C, 0.175.
Still for that read-out and setting: under G1U G17U stands 0.162; under G1U U7G, 0.088; under G1U U7A, 0.131.
Consider G1U A47U, for which the self-cleavage is 0.0955.
Same read-out and setting: the result for G1A C4A reads 0.248.
The same measure, in the same setting: under G1A C4G stands 0.149; under G1U G27A, 0.148; under G1A G51A, 0.21.
On the same count and under the same terms, under G1C A47U stands 0.152.
In the case of G1C A47G, the self-cleavage is 0.13.
In the case of G1C U14C, the self-cleavage came out at 0.
Regarding G1C U14A, the self-cleavage was 0.046.
The same measure, in the same setting: the result for G1U U33G reads 0.0782; that for G1U U33A, 0.123; that for G1A A47U, 0.257.
As for G1C A35G, the self-cleavage came out at 0.121.
On to G1U C10G, for which the self-cleavage was 0.231.
As to G1C C10G, the self-cleavage is 0.247.
The same measure, in the same setting: the result for G1C C10U reads 0.241.

The values above are taken from the RNAGym collection of RNA variant scans (doi:10.7554/elife.80360).
